Results taken from US20220256794A1, “TERPENE SYNTHASES AND TRANSPORTERS” (The State of Israel, Ministry of Agriculture & Rural …, priority 2019, published 2022).

B1: T-AG2575-1: Cannabis ABC-G transporter gene product, amino acid SEQ ID NO: 55 (protein)
chain: MEVGDLYKAGNSLRSSKGSSVWRGNNNNNNNKDEFFSKSRREDDIDDEEALTWAALEKLPTYDRLRKGILTTSKGKPTEVDVINLGSKERKDLLRRLVNVADEDNESFLLKLKQRIQTVGIELPTIEVRYENIKVEADVHVGSRALPSFINFCVNILEMLVSFLPILKSKKKHVTILDDVSGAIKPGRLTLLLGPPNSGKTTLLLTLAGKLASELKFSGRVTYNGHEMNEFIPQRTAAYISQHDVHIGEMTVRETLSFSARCQGVGTRYDMLAELSRREKEANITPDPDIDVFMKAASAEGQESSVITDYIIKILGLEGCADTMVGNEMLRGISGGQKKRVTTGEMLVGPAGALFMDEISTGLDSSTTFQIVNSLKQFAHIFEETIVISLLQPAPETYDLFDDIILLSDGQIVYQGPRENVLEFFELTGFKCPERKAIADFLQEVTSRKDQAQYWARSDQPYKFVTVNEFVEAFQSFHIGKKVVEHLSIPFDKTKSHPAALTTKPYGLNKMELLKACMSREFLLMKRNSFVHIFKIVQLGILGLISATIFLRTKMHHKTLQDGSIYLGALFFSTLMIMFNGLSEVPMTIVKLPVFYKQRDLQFFPAWAYALPSMIYKAPVAFIEVLVWMTITYYSIGFDPYFGRVVKLYVLFVIINQMASGLFRAIASIGRSMIIANTFGAFSLLLLFVLGGFVLSRDFIKGWWIWGYWISPLMYGQTGVVVNEFNGNKWKHVPPNSTETLGVQVLKARGFFTDSYWYWLGFAALSAYVVIFNFVYTLALTYLNPLEQRQAVSNENSESGDIQNDEEGEVIEMTQRPKNMGENQSKKKGMILPFEPHSICFDDVCYSVDMPQEMKGQGVVEDKLVLLKSVSGSFRPGVLTALMGVSGAGKTTLMDVLAGRKTGGYIEGDIRISGYPKKQETFARISGYCEQNDIHSPYVTVYESLLYSAWLRLPSEVDMDTRKMFIEEVMELVELVPLRQALVGLPGVNGLSTEQRKRLTIAVELVANPSIIFMDEPTSGLDARAAAIVMRTVRNTVDTGRTVVCTIHQPSIDIFEAFDELFLLKIGGEEIYVGPLGRHSCHLINYFEAIEGVSKIKEGYNPGTWMLEVSSSAQEMALGVDFANIYKNSDLYKRNKELIKELSTPAPGSKDLYFPTQFSRSLYTQCIACLWKQRQSYWRNPLYTAVRFMFTTFIALMFGTMFWDLGSKRSNKQDLTNALGSMYSAVLFIGVQNSSSVQPVVGVERTVFYREKAAGMFSAFPYTFGQVVVEIPYIICQAVVYCLIVYAMMGFEWTAVKFFWYLFFTFFSMLYFTFYGMMAVGITPNNHVASIISAAFYSIWNLFSGFIVPRTRIPIWWRWYYWGCPTAWTLYGLLVSQYGDVEDVMDAETGETVKQYLKSYFGYKHDFIGVVAMVNVFYGLLFGGIFALSIKVLNFQNR
modifications: ABC+PTR Transporter amino acid sequence (of the 12 identified gene products)
B2: AG3403-2: Cannabis terpene synthase gene product, amino acid SEQ ID NO: 40 (protein)
chain: MHCITLKHQISPLLPNICSTTNFGVFFRPKLYTNYNIINNATKSRLSSACYPIQCAVVNSSNAIIDRRSANFEPSIWSFDYIQSLTSQYKGEPYTSRVKKLERDVKKILVEMENSLAQLELIDTLQRLGISYRFENEINSILNKKYVNINNPNYNLYAIALQFRLLRQHGYAVPQEIFNQLKDEIENIKKNINGNDIMGILALYEASFYEKKGESILKEARIFTTKCLKNYTIMISEQKKLLIDNDYDYDIEVVNHALELPLHRRTTRTEAKWFIDAYAKKQDMNPMLLELAKLNFNTVQSTHHEDLKHIFRWWRHTKLGEKLNFARDRLMECFLWNIGIRFESKFSYFRTKTAKLFELVTFIDDIYDVYGTLDELELFTKAVERWDVKMINELPEYMKMPYLVLHNTINDMVFEVLRDQEISINIQYLKKTWVDMCKSFLQEAKWYYSGYTPTLEEYIENGWISVGAPVILVHAYFFHANNNRTITNTKEIFECLEHGYYPAIIRHSAIILRFTNDLTTSSEELKRGDAPTSIQCYMQEKNVSEEEAREHIKFLINEAWKEMNNDVGLYPISLTEDATNFAKMGFFIYQHGDGHSSQDNQSKQKISSLIIEPIPLYT
modifications: Terpene Synthase Gene Amino acid sequence of the 45 identified gene products
B3: 799-4: Cannabis terpene synthase gene product, amino acid SEQ ID NO: 33 (protein)
chain: MSNIQVLASSQLSDKIIARPTTNFHPSIWGDRFLHYNISEQDLVCKEERIEELIQVVKKEILSSNHDQLKLIDNLQRLGLSHHFESEIEKLLEHLSTTHHQNHHDLHDASLCFRLLRQHGFNVSSSIFEKFKDEKGNFKGSLITDVPGLLSLYEASHLSYVGESILDEALAFTTTHLKAIVANSKDHPLSHQISIALHRPLRKTIERLHARFYISIYEKDASHNKVLLELAKLDFNLLQCFHKKELSEIMRWWKEHEFAKKFPFARDRMVEQYFWILGVYYEPKYSRARKLLTKVIALASITDDIYDAYGTIDELELLTKAMQRWDITCMDKLEPEYLKTYYKAMLDSYEEFEKELKKEELYKLEYAKEEMKRIIGAYFEEARWLSEGYFPSLDEHLKVSYVSCGYVLLIATSYVGMYDIVTHETLNWLSKDPKIVSASTLLARFMDDIGSRKFEQKRNHIPSTVDCYMKQYEVSEEEAIKELNKRVDTHWKEINEDFIRPTVVPFPILVRVLNFTKTVDLLYKEGDDQYTNVGKVLKESIAALLIDSIPL
modifications: Terpene Synthase Gene Amino acid sequence of the 45 identified gene products

Key:
yeast cells [1] = test: Yeast growth (turbidity A600) in the presence of CBD; type: cell-based, Saccharomyces cerevisiae (strain Y1HGold); details: 0.5 mM CBD, 7-12 hours, FIG. 2
Procedure: (§1) The genes were expressed in yeast and tobacco. For yeast, the ABC and PTR Transporter genes were synthesized by the TWIST Co, cloned and expressed (individually) in the yeast expression vector pESC-URA (Agilent Technologies) for expression under the yeast native gal-10 promoter. Competent Saccharomyces cerevisiae (strain Y1HGold, CloneTech) cells were prepared, transformed by each of the resulting vector and selected on yeast synthetic media lacking Uracil as previously described [GietzR. D., Methods Mol. Biol. (2014) 1205:1-12].
An alternative method is to measure the yeast growth as a function of turbidity. Transformed yeast cells were grown on URA-glucose broth at 30° C. at 200 RPM, and after 24 hours 100 μl was used to inoculate 5 ml of URA-galactose broth in the same conditions till O.D.600 of 1.5. The yeast was further diluted to OD600=0.05 with 10 ml URA-galactose, and divided into two 5 ml aliquots into separate 50 ml falcon tubes. The first falcon (control) was added 78 μl acetonitrile (the solvent that the CBD was dissolved in), and the second one was added 78 μl CBD solution in acetonitrile (final CBD concentration=0.5 mM). […]

yeast cells [2] = test: Uptake of CBD into yeast cells; type: cell-based, Saccharomyces cerevisiae (strain Y1HGold); details: 0.5 mM CBD, three hour incubation, FIG. 3A and FIG. 4
Procedure: as §1
An additional strategy for determining transporter function is to measure the amount of exogenous CBD taken up and incorporated into the cells.
Transformed yeast cells were grown on URA-glucose broth at 30° C. at 200 RPM, and after 24 hours 100 μl was used to inoculate 5 ml of URA-galactose broth in the same conditions till OD600 of […]. The yeast was incubated with 0.5 mM CBD for 2-8 hours in 30° C. at 100 RPM, then centrifuged at 15000 g for 1 minute, and washed twice with 1 ml distilled water. The pellet was weighed and underwent HPLC analysis to determine the pellet's CBD content. The pellet was extracted in 1 ml methanol, and following centrifugation and filter was analyzed by HPLC using a diode-array detector and CBD was quantified against a commercial standard.

[3] = Terpene synthase activity assay with GPP; type: biochemical; details: TPS expressed in E. coli; 10 μM GPP, overnight at 30° C., SPME GC-MS
Procedure: Putative terpene synthase genes were synthesized by the TWIST Co., and cloned into Novagen pET-28a(+) with a 6×His tag at its' N-terminus. The recombinant plasmid was then sequenced for authentication and transformed into BL21(DE3) pLysS and pLysE strains of E. coli (Agilent Technologies) for heterologous expression. An overnight culture was used to inoculate a 20-200 mL culture, induced with 0.1 mM IPTG at an OD 600 nm >0,8 for initiation of recombinant protein translation then incubated at 18° C. and 250 RPM overnight. The cells were collected by centrifugation and the recombinant enzymes were extracted either as a crude extract or purified on a Ni-NTA agarose resin as previously described [Gonda I. et al., The Plant Journal (2013) 61, 458-472].
To determine the terpene synthase catalytic activity, reaction mixtures containing 100 μl of protein extract or purified protein were incubated overnight at 30° C. with either 10 μM geranyl diphosphate (GPP) or farnesyl diphosphate (FPP), in a final volume of 200 μl using a buffer containing 50 mM bis-tris, pH 6.9, 1 mM DTT, 10% (v/v) glycerol, 0.1 mM of MnCl2 and 10 mM of MgCl2. The volatiles produced were extracted by solid-phase microextraction (SPME) according to the methodology previously described [Iijima Y. et al., Plant Physiol (2004) 136: 3724-3736]. As controls, reactions were carried out without the cofactors MnCl2 and MgCl2, or protein extracts were heat inactivated by incubation at 100° C. for 5 minutes, or a short peptide product of an empty pET100 vector was utilized.
For solid-phase microextraction (SPME) analysis, a 57298-U SPME fiber assembly Divinylbenzene/Carboxen/Polydimethylsiloxane (DVB/CAR/PDMS, Supelco) needle size 23 ga, StableFlex, was used with an autosampler and analyzed by GC-MS as previously described [Davidovich-Rikanati R. et al., Nature Biotech (2007) 25:899-901; Davidovich-Rikanati R. et al., Plant J (2008) 56:228-238]. The SPME fiber were adsorbed for 30 min. by automatic HS-SPME at 50° C. followed by injection of the fiber into a GC-MS injection port for 5 min. (splitless), for desorption of the volatiles. Chiral separation was conducted on a Restek Rt™-bDEXsm column (30 m length 0.25 mm i.d., 0.25 μm film thickness, 2,3-di-O-methyl-6-O-tert-butyl dimethylsilyl beta cyclodextrin added into 14% cyanopropylphenyl/86% dimethyl polysiloxane). Helium (0.8 ml min-1) was used as a carrier gas with splitless injection. The injector temperature was 250° C., and the detector temperature was 230° C. The following conditions were used: initial temperature 40° C. for 5 min., followed by a ramp of 2° C./min. to 110° C., and 10° C./min up to 230° C. (5 min.). A quadrupole mass detector with electron ionization at 70 eV was used to acquire the MS data in the range of 41 to 350 m/z. The identification of the volatiles was assigned by comparison spectral data with the W10N11 and HPCH2205 GC-MS libraries and with authentic standard when available.

Molecule	inhibition of yeast growth in response to CBD, transporter-expressing yeast vs control yeast (yeast cells [1])	net uptake of CBD into yeast cells compared to control (empty vector) yeast (yeast cells [2])	Monoterpenes produced with GPP [3]
B1	reduced inhibition of growth	reduced net uptake of CBD	–
B2	–	–	beta-myrcene and geraniol
B3	–	–	myrcene
